Assay results from patent publication US20080311122A1 (AstraZeneca / MedImmune, published 2008).

T1: HMG1 purified from bovine (calf) thymus (bovine, UniProt P10103 2-215)
T1 construct: also called Calf thymus HMGB1; thymus HMG1
T1 sequence (looked up): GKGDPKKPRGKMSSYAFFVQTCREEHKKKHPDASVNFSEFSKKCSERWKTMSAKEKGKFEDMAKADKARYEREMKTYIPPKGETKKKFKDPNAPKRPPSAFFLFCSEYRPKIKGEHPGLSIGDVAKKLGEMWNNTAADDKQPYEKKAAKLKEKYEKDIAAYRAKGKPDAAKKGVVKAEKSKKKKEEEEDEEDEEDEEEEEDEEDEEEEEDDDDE

T2: HMG1 B Box peptide amino acids 150-183
T2 peptide: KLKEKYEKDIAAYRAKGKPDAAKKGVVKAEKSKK

T3: HMG2 (UniProt P40673 2-209, limits assumed)
T3 construct: also called HMGB2; HMBG2
T3 sequence (looked up): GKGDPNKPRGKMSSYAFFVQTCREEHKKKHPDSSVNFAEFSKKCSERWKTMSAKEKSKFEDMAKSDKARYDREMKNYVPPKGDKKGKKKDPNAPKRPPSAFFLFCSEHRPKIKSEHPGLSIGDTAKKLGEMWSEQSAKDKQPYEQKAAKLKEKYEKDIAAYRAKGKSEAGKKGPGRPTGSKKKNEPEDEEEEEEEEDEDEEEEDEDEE

T4: HMG1 B Box peptide amino acids 91-169
T4 construct: also called HMG1 peptide 91-169
T4 peptide: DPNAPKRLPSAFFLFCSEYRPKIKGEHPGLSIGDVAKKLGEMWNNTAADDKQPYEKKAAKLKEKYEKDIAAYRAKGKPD

T5: recombinant HMG1 purified from E. coli as a calmodulin binding protein (CBP) fusion protein (human, UniProt A9RA84 1-215 (Papio anubis entry))
T5 sequence: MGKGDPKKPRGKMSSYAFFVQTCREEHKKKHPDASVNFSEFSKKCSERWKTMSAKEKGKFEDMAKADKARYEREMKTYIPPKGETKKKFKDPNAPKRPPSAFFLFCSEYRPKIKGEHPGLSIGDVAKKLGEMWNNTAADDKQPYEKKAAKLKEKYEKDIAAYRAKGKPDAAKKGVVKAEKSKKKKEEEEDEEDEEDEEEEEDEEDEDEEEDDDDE

T6: recombinant rat HMGB-1, Europium-labeled (rat, UniProt P63159 1-215, limits assumed, Europium label, molar ratio of HMGB-1 to Eu 1:5)
T6 construct: also called Europium-labeled HMGB-1; recombinant HMG1 (Thp-1 assay)
T6 sequence (looked up): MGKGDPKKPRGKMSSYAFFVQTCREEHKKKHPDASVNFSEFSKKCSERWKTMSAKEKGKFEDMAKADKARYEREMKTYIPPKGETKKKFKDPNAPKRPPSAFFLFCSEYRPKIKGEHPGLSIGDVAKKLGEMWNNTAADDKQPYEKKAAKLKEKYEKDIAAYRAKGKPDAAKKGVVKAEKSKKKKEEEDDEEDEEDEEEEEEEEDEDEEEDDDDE

T7: activated HMG1 prepared from LPS stimulated THP-1 cells (human, UniProt P09429 1-215)
T7 sequence (looked up): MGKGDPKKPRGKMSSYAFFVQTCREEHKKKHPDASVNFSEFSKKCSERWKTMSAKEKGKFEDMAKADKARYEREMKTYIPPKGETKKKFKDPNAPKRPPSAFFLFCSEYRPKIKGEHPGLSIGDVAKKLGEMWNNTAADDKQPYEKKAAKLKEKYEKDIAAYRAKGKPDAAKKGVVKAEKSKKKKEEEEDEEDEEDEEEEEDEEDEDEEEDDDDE


Columns and labels:
[1] = target: T1, HMG1 purified from bovine (calf) thymus; assay: ELISA, wells coated with calf thymus HMGB1 at 5 ug/mL, antibody at 10 ug/mL, anti-human kappa/lambda-HRP, OD 490
Method: (§1) Binding to HMG1 vs. HMG2: Ultra high-binding ELISA plates (ThermoLab systems, #3855) were coated with either 5 ug/mL of Calf thymus HMGB1 or HMBG2 diluted in 10 mM Phosphate buffered saline (PBS), pH 7.2 and incubate overnight at 4 degrees. The plates were washed twice with Ca and Mg free PBS and 100 microliters of anti-HMGB1 antibody diluted in 10 mM PBS, pH 7.2+1% bovine serum albumin (BSA) to a final concentration of 10 ug/mL was added to each well and the plates were incubated 1 hour at room temperature. The wells were washed three times with 100 μl of PBS, pH 7.2. HRP labeled goat-anti-human IgG Kappa-chain (KPL, #14-10-10) and goat-anti-human IgG Lambda-chain (KPL, #14-10-11) were diluted in 10 mM PBS+1% BSA 1:1000 and 100 μl were added to each well and incubated for 1 hour at room temperature. The wells were then washed three times with 100 μl of PBS, pH 7.2. OPD substrate (Pierce chemical company, #34006) was prepared following the manufacturers instructions and 100 μl of prepared substrate was added to each well and the plates incubated at room temperature in the dark for 20-30 minutes. The reaction was stopped with the addition of 100 μl of 2M H₂SO₄, and the plates read on a plate reader at a wavelength of 490 nm.

[2] = target: T2, HMG1 B Box peptide amino acids 150-183; assay: ELISA, wells coated with HMG1 B Box peptide 150-183 at 10 ug/ml
Method: (§2) The plate was then blocked with 4% milk powder dissolved in PBS at 37° C. for 1 hour. The blocking solution was removed and replaced with human anti-HMG1 antibodies at various concentrations (see FIGS. 5A-B). […] HRP activity was detected with Sureblue HRP substrate (KPL). Plates were read at 450 nm using a Kinetic Microplate Reader (Molecular Devices). […] After washing and blocking with 1% BSA in PBS, the biotinylated peptides were individually added into the avidin coated wells and incubated for 30 min at room temperature. The serial diluted antibody G4, S16 and S6 at the initial concentration at 10 μg/ml were then transferred into the wells followed by adding mouse anti human IgG-HRP conjugate (Pierce). Detection was accomplished by adding 50 μl of tetramethylbenzidine (TMB) substrate (KPL) and the absorbance was read at […].

HMG2 = target: T3, HMG2; assay: ELISA, wells coated with HMGB2 at 5 ug/mL, OD 490
Method: as §1

[3] = target: T4, HMG1 B Box peptide amino acids 91-169; assay: ELISA, wells coated with HMG1 B Box peptide 91-169 at 10 ug/ml
Method: as §2

[4] = target: T5, recombinant HMG1 purified from E. coli …; assay: cell-based or functional assay
[5] = target: T5, recombinant HMG1 purified from E. coli …; assay: BIAcore, mAb immobilized, HMG1 injected, steady-state model
Method: HMG1 Binding Affinity via BIAcore Analysis: All experiments were performed on a BIAcore 3000 instrument (BIAcore, Inc., Piscataway, N.J.). Briefly, each mAb was immobilized to a CM5 sensor chip using a standard amino coupling chemistry. Separately a reference (control) flow cell was also prepared. Two-fold, serial dilutions of HMG1 in instrument buffer were sequentially injected at a slow flow rate over the individual mAb and reference flow-cell surfaces. Following the binding and dissociation of HMG1, the mAbs surfaces were regenerated with a brief pulse of 1M NaCl-50 mM NaOH. At the end of each experiment, the binding curves were evaluated using a steady-state model available through the BIA evaluation software supplied by BIAcore, Inc. (Piscataway, N.J.).

[6] = target: T5, recombinant HMG1 purified from E. coli …; assay: ELISA, rHMG1 preincubated with antibody, coated RAGE-Fc
Method: HMG1 binding to RAGE-Ig by ELISA: 50 μl/well of RAGE-Fc fusion protein at 5 μg/ml in PBS was added to each well of an ELISA plate and incubated overnight at 4° C. The plate was then blocked with 200 μl of 5% milk at 37° C. for 1 hr and washed 3× with PBS/Tween. 50 μl/well of diluted HMGB1 solution. For dose curves, HMGB1 concentrations started at 4 ug/ml in PBS. For antibody blocking the HMGB1 was preincubated in another plate with human anti-HMG1 antibodies or buffer, then transferred to the RAGE-coated plate. The plates were then incubated at room temperature for 2 hours and washed 3×. To detect any HMG1 bound to the immobilized RAGE-Fc a mixture of biotinylated mouse anti-HMG1 mAbs (10D4, 4H11, 3E10 and 5C12) each at 1 ug/ml, total Ab: 4 ug/ml, were added to each well and the plate was incubated for 1 hour at room temperature. The plate was then washed and Strepavidin-HPR was added to each well and incubated 15 min. The plate was then washed 3× and blotted dry. 100 μl of TMB developing agent was added and the plate read at 650 nm. Values were calculated as percent of inhibition with HMG1 alone equal to 0% inhibition. The data in FIG. 9 and summarized in Table 1 represent the average of two separate experiments.

[7] = target: T6, recombinant rat HMGB-1, Europium-labeled; assay: inhibition of binding of Eu-labeled HMGB-1 to THP-1 cells
Method: HMG1 binding to THP-1 Cells: Recombinant rat HMGB-1 was labeled using Eu-labelling Kit from PerkinElmer. Molar ratio of HMGB-1 to Eu is 1:5. THP-1 were cultured as the protocol from ATCC. Cells were harvested and suspended at concentration 1×10⁶/ml in assay buffer containing 1×DELFIA L*R binding buffer (PerkinElmer), 50% of DELFIA stabilizer (PerkinElmer) and 0.05% of sodium azide. 100 μl of cells (1×10⁵) was added into wells in 96 well cell culture plate. The plate was incubated with gentle shaking at 4° C. for one hour. 100 μl of assay buffer containing 2 nM of Europium-labeled HMGB-1 mixed with various concentrations (333, 166.5, 83.25, 41.6, 20.8, 10.4 and 5.2 nM) of human anti-HMGB1 antibodies E11 or G2 or soluble human RAGE-Fc, were added into each wells respectively. After one hour incubation with gentle shaking at 4° C., the cells were washed four times with 1×L*R wash buffer (PerkinElmer) by centrifuging at 1200 rpm×5 min. 200 μl of enhancement solution was added into each well to dissociate and enhance Eu fluorescence at 615 nm. The fluorescence was measured with Wallac Victor Fluorometer. Assay was performed in triplicate and human antibody R3-47 was used the negative isotype control.

[8] = target: T7, activated HMG1 prepared from LPS …; assay: cell-based or functional assay

| Binder | binding result [1] | binding result [2] | binding result (HMG2) | binding result [3] | IC50, inhibition of rHMG1 stimulated IL-1β release from human PBMC [4] [µg/mL] | IC50, inhibition of rHMG1 stimulated IL-6 release from human PBMC [4] [nM] | IC50, inhibition of rHMG1 stimulated IL-12 release from human PBMC [4] [µg/mL] | IC50, inhibition of rHMG1 stimulated TNF-α release from human PBMC [4] [µg/mL] | Kd [5] [nM] | percent inhibition of HMG1 binding to RAGE-Fc [6] [%] | IC50 [7] [nM] | IC50, inhibition of native activated HMG1 stimulated IL-6 release from human PBMC [8] [nM] | IC50, inhibition of HMG1 stimulated NO release from macrophages [4] [µg/mL] |
| --- | --- | --- | --- | --- | --- | --- | --- | --- | --- | --- | --- | --- | --- |
| anti-HMG1 antibody S10 (antibody, V domains shown) VH: EVQLLESGGGLVQPGGSLRLSCAASGFTFSWYDMWWVRQAPGKGLEWVSWIVPSGGITAYADSVKGRFTISRDNSKNTLYLQMNSLRAEDTATYYCARGNYGPSPFDYWGQGTLVTVSS VL: DIQMTQSPGTLSLSPGERATLSCRATQSVRKNFLAWYQQKPGQAPRLLIYDASSRATGIPDRFSGSGSGTDFTLTISRLEPEDFAVYYCQQYGNSPIIFGQGTRLEIK | binds | no binding (tested: 10 ug/ml (log 1.00)) | no binding (tested: 10 ug/mL (not on the sheet)) | no binding (tested: 10 ug/ml (log 1.00)) | 2.59 | 0.324 | 1.13 | 0.875 | 54 | ≥ 35 |  |  |  |
| anti-HMG1 antibody G2 (antibody, V domains shown) VH: EVQLLESGGGLVQPGGSLRLSCAASGFTFSWYKMQWVRQAPGKGLEWVSGISPSGGSTAYADSVKGRFTISRDNSKNTLYLQMNSLRAEDTAVYYCAKMGLFNTGNSYVDYWGQGTLVTVSS VL: AQSELTQPPSVSEAPGQRVTISCSGSTSNIGNNAVIWYQQLPGKAPKLLIYYDDLLPSGVSDRFSGSKSGTSGSLAISGLQSEDEADYYCASWDDNLNGPLFGGGTKLTVL | binds | no binding (tested: 10 ug/ml (log 1.00)) | no binding (tested: 10 ug/mL (not on the sheet)) | no binding (tested: 10 ug/ml (log 1.00)) | 5.03 | 0.994 | 1.26 | 1.35 |  |  | 73.3 |  |  |
| anti-HMG1 antibody S17 (antibody, V domains shown) VH: EVQLLESGGGLVQPGGSLRLSCAASGFTFSYYDMHWVRQAPGKGLEWVSRISPSGGYTWYADSVKGRFTISRDNSKNTLYLQMNSLRAEDTAVYYCTRGRYTSGWHEYFDPWGQGTLVTVSS VL: DIQMTQSPSSLSASVGDRVTITCRASQSIGTYLNWYQQKPGTAPKVLIYAASSLQSGVPSRFSGSGSGTDFTLTISSLQPEDFSTYYCQQSYNTPRTFGQGTKLEIK | binds | no binding (tested: 10 ug/ml (log 1.00)) | no binding (tested: 10 ug/mL (not on the sheet)) | no binding (tested: 10 ug/ml (log 1.00)) | 0.0809 | 0.162 |  |  |  |  |  | 11.5 | 41.7 |
